From doi:10.1101/2025.03.20.644338 (bioRxiv, 2025)

Key:
Experiment in all cases: ITC
[1] = molecular target: mouse Rbpj core (residues 53-474) F92V variant (mouse, UniProt P31266 53-474, F92V)
[2] = molecular target: mouse Rbpj core (residues 53-474) S358R variant (mouse, UniProt P31266 53-474, S358R)
[3] = molecular target: mouse Rbpj core (residues 53-474) R91G variant (mouse, UniProt P31266 53-474, R91G)
[4] = molecular target: wild-type mouse Rbpj core (residues 53-474) (mouse, UniProt P31266 53-474)
Chain of wild-type mouse Rbpj core (residues 53-474) (P31266 53-474): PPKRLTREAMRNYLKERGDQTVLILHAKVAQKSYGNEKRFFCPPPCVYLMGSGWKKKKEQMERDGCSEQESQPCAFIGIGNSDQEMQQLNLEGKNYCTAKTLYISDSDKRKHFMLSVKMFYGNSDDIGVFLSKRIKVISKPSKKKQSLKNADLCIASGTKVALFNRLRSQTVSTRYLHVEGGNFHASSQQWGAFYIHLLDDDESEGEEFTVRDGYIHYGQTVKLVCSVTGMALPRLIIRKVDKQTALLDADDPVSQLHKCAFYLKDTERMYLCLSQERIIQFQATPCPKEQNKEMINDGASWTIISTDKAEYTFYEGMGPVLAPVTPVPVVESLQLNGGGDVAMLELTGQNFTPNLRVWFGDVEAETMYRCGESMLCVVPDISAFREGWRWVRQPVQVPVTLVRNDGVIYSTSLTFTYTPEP

Measured: binding result

Chain of mouse Rbpj core (residues 53-474) S358R variant (P31266 53-474 S358R): as the sequence (P31266 53-474) above, with S306R counted along it
Chain of mouse Rbpj core (residues 53-474) F92V variant (P31266 53-474 F92V): as the sequence (P31266 53-474) above, with F40V counted along it
Chain of mouse Rbpj core (residues 53-474) R91G variant (P31266 53-474 R91G): as the sequence (P31266 53-474) above, with R39G counted along it

VLLSRKRRRQHGQLWFPEGFKVSEASKK [peptide consisting of residues 1754-1781 of human NOTCH1]
binds: all assays above

B1: human SHARP residues 2776-2833 (domain or fragment)
chain: RASANENSRFHPGSMPVIDDRPADAGSGAGLRVNTSEGVVLLSYSGQKTEGPQRISAK
binds: [1] | [2] | [4]
